From patent US20230144459A1 (published 2023)
Where no end group is shown, it is not given here.

Target: T1, BSA conjugated CD28 stalk region dimeric peptide (also: dimer, conjugated to BSA via C-terminal Lys)
T1 peptide: GKHLCPSPLFPGPSKPK
Experiment: ELISA

B1: antibody M9 (antibody, V domains shown)
VH: DVKLVESGGGLVKLGGSLKLSCVASGFTFSSYYMSWVRQTPEKRLEWVATISDGGDNTYYAGTVTGRFTISRDFAKNTLYLQMNSLTSEDTAVYYCARIHWPYYFDSWGQGTTLTVSS
VL: QFVLSQSPAILSASPGEMLTMTCRASSSVSYMNWYQQKPGSSPKPWIYATSDLASGVPARFSGSGSGTSYSLTISRVEAEDAATYYCQQWSSHPPTFGGGTKLEIR
IC50: 9 ng/mL
